Measurements: patent publication US20250152729A1 (CANCER RESEARCH TECHNOLOGY, published 2025)
Where two headings read alike, the source gives them in different places.

T1: human SEMA4A expressed on cells (UniProt ID Q9H3S1, isoform 1) (human, UniProt Q9H3S1 33-761)
T1 sequence: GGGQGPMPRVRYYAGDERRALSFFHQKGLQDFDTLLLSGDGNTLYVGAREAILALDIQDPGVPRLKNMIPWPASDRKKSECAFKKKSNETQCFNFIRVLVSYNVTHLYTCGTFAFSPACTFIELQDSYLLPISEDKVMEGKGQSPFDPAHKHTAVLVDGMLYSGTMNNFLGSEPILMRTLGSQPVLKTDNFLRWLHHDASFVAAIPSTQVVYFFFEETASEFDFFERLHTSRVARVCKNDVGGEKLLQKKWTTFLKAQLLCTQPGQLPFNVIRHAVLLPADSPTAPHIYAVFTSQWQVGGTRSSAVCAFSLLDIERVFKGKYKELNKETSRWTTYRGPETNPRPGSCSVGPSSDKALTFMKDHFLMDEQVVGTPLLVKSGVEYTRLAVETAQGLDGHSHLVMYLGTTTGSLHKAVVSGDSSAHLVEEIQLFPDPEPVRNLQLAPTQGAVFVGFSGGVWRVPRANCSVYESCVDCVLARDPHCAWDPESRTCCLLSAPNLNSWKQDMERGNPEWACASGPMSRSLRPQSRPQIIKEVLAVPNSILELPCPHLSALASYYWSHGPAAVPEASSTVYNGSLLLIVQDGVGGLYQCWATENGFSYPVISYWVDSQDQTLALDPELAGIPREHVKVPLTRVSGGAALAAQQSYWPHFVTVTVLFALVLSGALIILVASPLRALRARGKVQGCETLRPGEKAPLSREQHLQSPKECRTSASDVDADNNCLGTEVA

T2: human SEMA4B expressed on expi293 cells (human, UniProt Q9NPR2 44-837)
T2 construct: whole, on cells
T2 sequence (looked up): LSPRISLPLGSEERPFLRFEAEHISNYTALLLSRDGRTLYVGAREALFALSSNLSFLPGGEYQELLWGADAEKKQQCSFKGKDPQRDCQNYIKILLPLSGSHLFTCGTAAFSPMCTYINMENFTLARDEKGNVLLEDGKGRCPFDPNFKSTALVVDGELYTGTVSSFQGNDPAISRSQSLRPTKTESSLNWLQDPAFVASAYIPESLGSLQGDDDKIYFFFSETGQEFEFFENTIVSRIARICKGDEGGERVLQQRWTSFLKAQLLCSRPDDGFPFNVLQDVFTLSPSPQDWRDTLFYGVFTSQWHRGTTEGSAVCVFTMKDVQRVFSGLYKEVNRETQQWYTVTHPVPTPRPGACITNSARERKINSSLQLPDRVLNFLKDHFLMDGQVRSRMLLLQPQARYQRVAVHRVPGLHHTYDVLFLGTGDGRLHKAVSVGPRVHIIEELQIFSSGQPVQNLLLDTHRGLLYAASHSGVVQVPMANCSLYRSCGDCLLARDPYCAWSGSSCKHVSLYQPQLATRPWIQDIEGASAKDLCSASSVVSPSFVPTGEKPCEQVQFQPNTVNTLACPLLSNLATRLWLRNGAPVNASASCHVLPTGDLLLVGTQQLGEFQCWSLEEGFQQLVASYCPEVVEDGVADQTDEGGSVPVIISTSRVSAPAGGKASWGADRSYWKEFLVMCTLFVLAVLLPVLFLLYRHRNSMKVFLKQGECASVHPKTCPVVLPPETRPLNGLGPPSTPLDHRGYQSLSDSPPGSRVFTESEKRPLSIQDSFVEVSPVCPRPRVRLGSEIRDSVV

T3: mouse SEMA4A expressed on expi293 cells (UniProt ID Q62178) (mouse, UniProt Q62178 33-760)
T3 construct: Transient transfection in expi293 cells
T3 sequence: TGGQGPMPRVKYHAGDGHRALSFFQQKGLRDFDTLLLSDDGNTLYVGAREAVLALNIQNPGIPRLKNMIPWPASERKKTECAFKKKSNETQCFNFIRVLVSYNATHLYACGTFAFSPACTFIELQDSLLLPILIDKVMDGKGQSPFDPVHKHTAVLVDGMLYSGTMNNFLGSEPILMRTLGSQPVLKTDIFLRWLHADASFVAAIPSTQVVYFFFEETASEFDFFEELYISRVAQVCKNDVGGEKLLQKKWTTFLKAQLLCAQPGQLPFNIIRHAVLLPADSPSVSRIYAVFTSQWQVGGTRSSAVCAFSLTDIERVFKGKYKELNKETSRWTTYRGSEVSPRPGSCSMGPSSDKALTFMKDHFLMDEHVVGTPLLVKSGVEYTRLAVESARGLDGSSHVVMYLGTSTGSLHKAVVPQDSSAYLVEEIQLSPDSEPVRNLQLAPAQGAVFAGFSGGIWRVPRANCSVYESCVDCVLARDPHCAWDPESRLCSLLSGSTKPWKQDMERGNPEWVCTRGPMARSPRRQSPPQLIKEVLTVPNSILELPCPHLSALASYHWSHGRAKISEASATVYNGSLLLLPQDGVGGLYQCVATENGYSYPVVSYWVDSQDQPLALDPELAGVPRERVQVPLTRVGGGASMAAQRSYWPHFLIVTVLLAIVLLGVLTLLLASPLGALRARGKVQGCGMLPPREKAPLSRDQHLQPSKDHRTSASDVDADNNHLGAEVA


Legend:
[1] = target: T1, human SEMA4A expressed on cells …; test: cell-based or functional assay
[2] = target: T1, human SEMA4A expressed on cells …; test: cell-based or functional assay; remark: listed apart in the source
[3] = target: T2, human SEMA4B expressed on expi293 cells; test: Mirrorball direct binding, dilution series on expi293 cells transiently transfected with human SEMA4B, anti-human Alexa Fluor 647
Protocol: To determine the specificity profile of each purified human Alya IgG1 conjugated to McMMAF, a dilution series was tested for binding to human SEMA4A, human SEMA4B and mock transfected cells (transient transfections set up in expi 293 cells.) The three assays employed methods described in section 2.3, using the appropriate cells and substituting the un-purified scFv periplasmic preparation with the human Alya IgG1 conjugated to McMMAF. Data was analysed as Count x median mean intensity (x FLU).

[4] = target: T1, human SEMA4A expressed on cells …; test: cell-based or functional assay; remark: listed apart in the source
[5] = target: T3, mouse SEMA4A expressed on expi293 cells …; test: Mirrorball direct binding, dilution series on expi293 cells transiently transfected with mouse SEMA4A, anti-human Alexa Fluor 647
Text: (§1) Hits from the primary screening were re-formatted into the human Alya IgG1 vector and re-expressed and purified as described in section 4.1. In addition, a single clone was identified that contained an Asparagine deamidation motif (Asn Gly) within its VHCDR2. This potential sequence liability was de-risked by synthesising de novo two clonal variant VH genes (Asn Ala and Gln Gly) and cloning these sequences into the human Alya IgG1 expression vector. To determine the specificity profile of each purified human Alya IgG1, a dilution series was tested for binding to human SEMA4A, mouse SEMA4A, cyno SEMA4A, human SEMA4B and mock transfected cells (transient transfections set up in expi 293 cells.) The five assays employed methods described in section 2.3, using the appropriate cells and substituting the un-purified scFv periplasmic preparation with the recombinant human Alya IgG1 dilution series. Data was analysed as Count x median mean intensity (x FLU).

[6] = target: T2, human SEMA4B expressed on expi293 cells; test: Mirrorball direct binding, dilution series on expi293 cells transiently transfected with human SEMA4B, anti-human Alexa Fluor 647; remark: listed apart in the source
Text: as §1

Row | Binder | Average KARPAS 25 IC50 [pM], cell kill [1] [pM] | Average MM1.S IC50 [pM], cell kill [1] [pM] | Average NCI-H929 IC50 [pM], cell kill [1] [pM] | binding result [3] | binding result [5] | further results
1 | 5Hg1-5Lg2 human Alya IgG1 conjugated to McMMAF (antibody, V domains shown, McMMAF on the engineered cysteines 239iCys and S442C (EU numbering) of the heavy constant region, Antibody-drug conjugate; human IgG1 Alya constant) VH: QVQLVQSGAEVKKPGASVKVSCKASGYTFTDYWMHWVRQAPGQGLEWMGAIDTSDSYTSYNQKFKGRVTMTRDTSTSTVYMELSSLRSEDTAVYYCARDYGNFYYYAMDYWGQGTLVTVSS VL: QAVVTQEPSLTVSPGGTVTLTCRSSTGAVTTSNYANWFQQKPGQAPRTLIYGTNNRAPWTPARFSGSLLGGKAALTLLGAQPEDEAEYYCALWYSNHWVFGGGTKLTVL | 317 | 15.8 | 59.4 | no binding (tested: log (M) -8 (1e-8 M)) | – | EC50 (nM), Fab-pHast internalisation into NCI-H929 [2]: 0.75 nM; Fold-Change at 6 hours (10 nM), Fab-pHast internalisation [2]: 150 fold
2 | 5Hg2-5Lg3 human Alya IgG1 conjugated to McMMAF (antibody, V domains shown, McMMAF on the engineered cysteines 239iCys and S442C (EU numbering) of the heavy constant region, Antibody-drug conjugate; human IgG1 Alya constant) VH: QVQLVQSGAEVKKPGASVKVSCKASGYTFTDYWMHWVRQAPGQRLEWMGAIDTSDSYTSYNQKFKGRVTITRDTSASTAYMELSSLRSEDTAVYYCARDYGNFYYYAMDYWGQGTLVTVSS VL: QTVVTQEPSFSVSPGGTVTLTCRSSTGAVTTSNYANWYQQTPGQAPRTLIYGTNNRAPGVPDRFSGSILGNKAALTITGAQADDESDYYCALWYSNHWVFGGGTKLTVL | 316 | 102 | 863 | no binding (tested: log (M) -8 (1e-8 M)) | – | –
3 | 5Hg2-5Lg1 human Alya IgG1 conjugated to McMMAF (antibody, V domains shown, McMMAF on the engineered cysteines 239iCys and S442C (EU numbering) of the heavy constant region, Antibody-drug conjugate; human IgG1 Alya constant) VH: QVQLVQSGAEVKKPGASVKVSCKASGYTFTDYWMHWVRQAPGQRLEWMGAIDTSDSYTSYNQKFKGRVTITRDTSASTAYMELSSLRSEDTAVYYCARDYGNFYYYAMDYWGQGTLVTVSS VL: QAVVTQEPSLTVSPGGTVTLTCRSSTGAVTTSNYANWFQQKPGQAPRTLIYGTNNRAPWTPARFSGSLLGGKAALTLSGAQPEDEAEYYCALWYSNHWVFGGGTKLTVL | 228 | 11.8 | 33.6 | no binding (tested: log (M) -8 (1e-8 M)) | – | EC50 (nM), Fab-pHast internalisation into NCI-H929 [2]: 0.62 nM; Fold-Change at 6 hours (10 nM), Fab-pHast internalisation [2]: 144 fold
4 | C0120904 human Alya IgG1 conjugated to McMMAF (antibody, V domains shown, McMMAF on the engineered cysteines 239iCys and S442C (EU numbering) of the heavy constant region, Antibody-drug conjugate; human IgG1 Alya constant) VH: not shown VL: SYELTQPPSVSVSPGQTATISCSGNKLGDGYVSWYQQKPGQSPVLVIYQDSKRPSGIPQRYSGSNSGNTATLTISGTQAIDEADYYCQAWDSSTVVFGGGTKVTVL | – | – | – | no binding (tested: log (M) -8 (1e-8 M)) | – | Average MM1.S IC50 [pM], cell kill [4]: 1490 pM; Average NCI-H929 IC50 [pM], cell kill [4]: 18100 pM
5 | C0120904 (antibody, V domains shown, 239iCys and S442C (EU numbering) in the constant region, purified, unconjugated; also called C0120904 human Alya IgG1 (unconjugated)) VH: not shown VL: SYELTQPPSVSVSPGQTATISCSGNKLGDGYVSWYQQKPGQSPVLVIYQDSKRPSGIPQRYSGSNSGNTATLTISGTQAIDEADYYCQAWDSSTVVFGGGTKVTVL | – | – | – | – | binds | binding result [6]: no binding (tested: log (M) -8 (1e-8 M))
6 | C0120913 (antibody, V domains shown, 239iCys and S442C (EU numbering) in the constant region, purified, unconjugated; also called C0120913 human Alya IgG1 (unconjugated)) VH: QVQLVQSGAEVKKPGESLKISCKGSGYSFTSYWVGWVRQMPGKGLEWMGIIYPGDSDARYGPSFQGQVTISADKSINTAYLQWNSLKASDTATYYCARLGDGAYYYYLDVWGRGTMVTVSS VL: SYELTQPPSVSESPGRTVTISCSGSSGSIASNFVHWYQQRPGSAPTTVIYEDDQRPSGVPDRFSGSIDSSSNSASLTISGLKTEDEADYYCQSYDNNDHAVFGGGTKLTVL | – | – | – | – | binds | –
7 | C0120910 human Alya IgG1 conjugated to McMMAF (antibody, V domains shown, McMMAF on the engineered cysteines 239iCys and S442C (EU numbering) of the heavy constant region, Antibody-drug conjugate; human IgG1 Alya constant) VH: QVQLVESGGGVVQPGRSLRLSCEASEFTFSNYAMHWVRQAPDKGLEWVAGILYDGATAHYADSVKGRFTISRDNSKNTLYLQINSLRAEDTAVYYCARAHYYDYWSGLSFEYWGRGTLVTVSS VL: QSVLTQPPSASVSPGQTASIPCSGDDLGDKYIYWYQQKPGQSPVLVIYQDSRRPPGIPERFSGSNSGNTATLTISGTQPMDEADYYCQTWDTSSASAVFGGGTKVTVL | – | – | – | no binding (tested: log (M) -8 (1e-8 M)) | – | Average MM1.S IC50 [pM], cell kill [4]: 7490 pM; Average NCI-H929 IC50 [pM], cell kill [4]: 3990 pM
8 | C0120910 (antibody, V domains shown, 239iCys and S442C (EU numbering) in the constant region, purified, unconjugated; also called C0120910 human Alya IgG1 (unconjugated)) VH: QVQLVESGGGVVQPGRSLRLSCEASEFTFSNYAMHWVRQAPDKGLEWVAGILYDGATAHYADSVKGRFTISRDNSKNTLYLQINSLRAEDTAVYYCARAHYYDYWSGLSFEYWGRGTLVTVSS VL: QSVLTQPPSASVSPGQTASIPCSGDDLGDKYIYWYQQKPGQSPVLVIYQDSRRPPGIPERFSGSNSGNTATLTISGTQPMDEADYYCQTWDTSSASAVFGGGTKVTVL | – | – | – | – | binds | –
9 | C0120919 (antibody, V domains shown, 239iCys and S442C (EU numbering) in the constant region, purified, unconjugated; also called C0120919 human Alya IgG1 (unconjugated)) VH: not shown VL: QSALTQPPSVSVSSGQTASITCSGDKLGDKYASWYQQKPGQSPVLVIYQDTKRPSEIPERFSGSNSGNTATLTISGTQAMDEADYYCQAWDSSLVFGGGTKVTVL | – | – | – | – | binds | binding result [6]: no binding (tested: log (M) -8 (1e-8 M))
